One molecule from paper PMC7788105 (iScience, 2020) can be followed below.

This assay addresses T1, human PD-1 (programmed cell death receptor 1) (human, UniProt Q15116 25-170, 15N-labeled in the AIDA-NMR assay; covalently labeled with a fluorophore in the MST assay).
T1 construct: Programmed cell death receptor 1 (PD-1, CD279), human; In the cell-based ICB assays hPD-1 stands on Jurkat effector cells; also called hPD-1; CD279
Nature of the assay: MST; hPD-1 covalently labeled with a fluorophore, incubated with increasing concentrations of unlabeled hPD-L1 or mPD-L1; two independent dilution series, KD model. As to conditions: both partners purified.

T1 sequence (Q15116 25-170): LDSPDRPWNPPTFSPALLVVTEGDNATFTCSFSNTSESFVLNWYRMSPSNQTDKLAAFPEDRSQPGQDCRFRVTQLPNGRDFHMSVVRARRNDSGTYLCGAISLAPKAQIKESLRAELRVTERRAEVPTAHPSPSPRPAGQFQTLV

B1: mouse PD-L1 (ligand)
chain: FTITAPKDLYVVEYGSNVTMECRFPVERELDLLALVVYWEKEDEQVIQFVAGEEDLKPQHSNFRGRASLPKDQLLKGNAALQITDVKLQDAGVYCCIISYGGADYKRITLKVNAPY
modifications: fluorescently labeled in the MST assay with antibodies
notes: PD-L1, mouse; In the h/mICB assay mPD-L1 is endogenous on IFN-gamma-treated B16-F10/TCRAct cells; also called mPD-L1
With B1, the Kd was found to be 3.2 ± 0.2 µM.
